Test results: paper PMC2676678

Tests used:
Settings in all cases: holding potential -50 mV; Na+ medium (about 96 mM Na+); Hill coefficient about 1
[1] = substrate: N[C@H](CO)C(=O)O; assay: cells, lysate or membranes
[2] = substrate: C[C@H](N)C(=O)O; assay: cells, lysate or membranes
[3] = substrate: N[C@@H](CO)C(=O)O; assay: cells, lysate or membranes
[4] = substrate: CC(C)C[C@H](N)C(=O)O; assay: cells, lysate or membranes
[5] = substrate: O=C(O)[C@H]1CCCN1; assay: cells, lysate or membranes
[6] = substrate: O=C(O)[C@@H]1CCCN1; assay: cells, lysate or membranes
[7] = substrate: N[C@H](Cc1ccccc1)C(=O)O; assay: cells, lysate or membranes
[8] = substrate: CC[C@H](C)[C@H](N)C(=O)O; assay: cells, lysate or membranes
[9] = substrate: CC(C)C[C@@H](N)C(=O)O; assay: cells, lysate or membranes
[10] = substrate: CC(C)[C@H](N)C(=O)O; assay: cells, lysate or membranes
[11] = substrate: CC(C)[C@@H](N)C(=O)O; assay: cells, lysate or membranes
[12] = substrate: CSCC[C@@H](N)C(=O)O; type: cell-based, Drosophila melanogaster
[13] = substrate: CSCC[C@H](N)C(=O)O; type: cell-based, Drosophila melanogaster
[14] = substrate: N[C@@H](Cc1ccc(O)c(O)c1)C(=O)O; type: cell-based, Drosophila melanogaster
[15] = substrate: N[C@@H](Cc1ccccc1)C(=O)O; type: cell-based, Drosophila melanogaster
[16] = substrate: N[C@H](Cc1ccc(O)cc1)C(=O)O; type: cell-based, Drosophila melanogaster
[17] = substrate: N[C@@H](Cc1c[nH]cn1)C(=O)O; type: cell-based, Drosophila melanogaster
[18] = substrate: N[C@H](CS)C(=O)O; type: cell-based, Drosophila melanogaster
[19] = substrate: N[C@@H](CS)C(=O)O; type: cell-based, Drosophila melanogaster
[20] = substrate: N[C@@H](Cc1ccc(O)cc1)C(=O)O; type: cell-based, Drosophila melanogaster

B1: DmNAT1 (Drosophila melanogaster) (protein)
chain: MELKGVQPSNGSSNGSGNGATNAASTEKTDAEKPTAERTNWGNGLEFLMSCISVSVGLGNVWRFPFTAYENGGGAFLIPYIIVLFLIGKPMYYLEMIMGQFTSQGTVKIWSVVPGFVGVGYGQAFGTICIISYYSSLLALTLYYLFVSFQSELPWSYCRDEWTNCVNSRPQEYVDNLLTGVSLANESARNLSGIVANDETEKLQSSSELYFLNVVIKEKLDISDGVGDPDWKLTLALFVAWVVIFLVIMRGVKSSGKAAYFLALFPYVVLFVLLIRAVTLEGARDGILFFLEPQWGELLNPTVWKEAVVQCFFSLAVGSGPIIMFASYNRFDHGIYRDAMIVTTLDTLTSLLGGITIFAILGNLAHNLQIENIRDVVRSGTGLAFISYPDAISKFQAVPQLFSVLFFFMLFVLGIGSIVALQSTIVTIICDQFKGWKYWKVALTTSVCGFLMGLVYVTPGGQWILTLVDFYGGTYVVFILAIFELAGIVWVYGLQNFCDDIEFMCNRRVSLYWRVCWSFFTPVMMIIIFIYSMVTIEPIKYSELYFPEAANIAGWLLFAIGAAQFPLWGLWYISRHPQGTYWKSLKASLKPSDRWGPANPEIRREWVIFKNQKAAQRATQKDTSKLGFFWRKVANFCGSNK
With B1 the K0.5 [1] was 128.1 ± 21.3 µM, the K0.5 [2] was 255.6 ± 76.8 µM and the K0.5 [3] was 119.7 ± 18.6 µM. The K0.5 [4] was 126.2 ± 39.8 µM, the K0.5 [5] was 142.4 ± 38.5 µM and the K0.5 [6] was 127.6 ± 44.9 µM. It also gave a K0.5 [7] of 55.2 ± 10.3 µM, a K0.5 [8] of 130.1 ± 37.5 µM and a K0.5 [9] of 92.2 ± 34.8 µM. For the same protein, the K0.5 [10] was 96.8 ± 20.2 µM, the K0.5 [11] was 170.2 ± 38.3 µM and the K0.5 [12] was 24.7 ± 9.9 µM. It also gave a K0.5 [13] of 39.8 ± 12.7 µM, a K0.5 [14] of 242.3 ± 57.9 µM and a K0.5 [15] of 58.3 ± 5.3 µM. It also gave a K0.5 [16] of 64.3 ± 15.3 µM, a K0.5 [17] of 188.5 ± 37.9 µM and a K0.5 [18] of 141.0 ± 28.6 µM. The K0.5 [19] was 199.1 ± 18.8 µM and the K0.5 [20] was 96.8 ± 17.9 µM.
